Data from patent US20210347873A1 (SHANGHAI PHARMAEXPLORER, published 2021).

Key:
biotinylated hBLyS-ECD [1] = target: T1, biotinylated hBLyS-ECD (human, UniProt Q9Y275 134-285, biotinylated with Biotin-X-X-NHS (molar ratio 7:1); sites not stated); assay: competition ELISA; competitor 35E6F7C3
T1 construct: also called biotinylated immunogen; biotinylated hBLvS-ECD
Protocol: (§1) The purified human BLyS antibody and hybridoma antibody were subjected to competitive enzyme-linked immunosorbent assay and the epitopes binding by different antibodies were analyzed.
(§2) Purified BLyS antibody was first diluted to a final concentration of 1.0 μg/mL with PBS, then aliquoted into a 96-well ELISA plate at 50 μL per well, and the plate was subsequently sealed with plastic film and incubated at 4° C. overnight. On the next day the plate was rinsed four times with the plate washing buffer [PBS buffer containing 0.05% (v/v) Tween20] and mixed with blocking solution [PBS buffer containing 0.05% (v/v) Tween20 and 1% (w/w) BSA], and then blocked at 37° C. for 1 hour. The blocking solution was removed, and the competitive antibody and IgG control were diluted to a final concentration of 40 μg/mL with PBS and then aliquoted into the 96-well ELISA plate at 50 μL per well. The biotinylated hBLyS-ECD was then diluted with PBS to a final concentration of 2 ng/mL and pipetted into the 96-well ELISA plate at 50 μL per well. The final concentration of competitive antibody and hBLyS-ECD was 20 μg/mL and 1 ng/mL, respectively. After incubation at 37° C. for 1 hour, the plate was rinsed four times with the plate washing buffer [PBS buffer containing 0.05% (v/v) Tween20]. 100 μL per well of HRP-labeled (horseradish peroxidase) streptavidin (purchased from Sigma) was added into the plate and the plate was incubated at 37° C. for 1 hour. The plate was then washed four times with the plate washing buffer [PBS buffer containing 0.05% (v/v) Tween20]. 100 μL of TMB substrate was aliquoted into each well and after incubation at room temperature for 5 minutes, 100 μL of stop solution (1.0 N HCl) was aliquoted into each well. A₄₅₀ₙₘ values were read by an ELISA plate reader (SpectraMax M5e, purchased from Molecular Device) and the results were shown in Tables 18A-18B. […] The data shown in the table is the inhibitory rate (%) of the binding level of the original antibody to hBLyS-ECD after addition of the competitive antibody.

biotinylated hBLyS-ECD [2] = target: T1, biotinylated hBLyS-ECD; assay: competition ELISA; competitor 97A3C2H4
Protocol: as §1, §2

biotinylated hBLyS-ECD [3] = target: T1, biotinylated hBLyS-ECD; assay: competition ELISA; competitor 67A2E1D10
Protocol: as §1, §2

biotinylated hBLyS-ECD [4] = target: T1, biotinylated hBLyS-ECD; assay: competition ELISA; competitor 8E7D9C7F5
Protocol: as §1, §2

biotinylated hBLyS-ECD [5] = target: T1, biotinylated hBLyS-ECD; assay: competition ELISA; competitor 93C6F10D3
Protocol: as §1, §2

biotinylated hBLyS-ECD [6] = target: T1, biotinylated hBLyS-ECD; assay: competition ELISA; competitor 111D10D6G3
Protocol: as §1, §2

biotinylated hBLyS-ECD [7] = target: T1, biotinylated hBLyS-ECD; assay: competition ELISA; competitor 78C11D2D12
Protocol: as §1, §2

T1 sequence (Q9Y275 134-285): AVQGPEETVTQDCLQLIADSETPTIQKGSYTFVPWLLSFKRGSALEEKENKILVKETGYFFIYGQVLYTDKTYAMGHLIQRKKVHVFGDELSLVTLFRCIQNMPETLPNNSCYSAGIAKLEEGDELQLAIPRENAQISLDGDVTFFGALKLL

Binder | inhibitory rate (%) (biotinylated hBLyS-ECD [1]) | inhibitory rate (%) (biotinylated hBLyS-ECD [2]) | inhibitory rate (%) (biotinylated hBLyS-ECD [3]) | inhibitory rate (%) (biotinylated hBLyS-ECD [4]) | inhibitory rate (%) (biotinylated hBLyS-ECD [5]) | inhibitory rate (%) (biotinylated hBLyS-ECD [6]) | inhibitory rate (%) (biotinylated hBLyS-ECD [7])
8E7D9C7F5 (antibody, V domains shown, Mouse hybridoma antibody purified on Protein G) VH: QVQLQQSGVELARPGASVKLSCKASGYTFTSYGISWVKQRTGQALEWIGEIYPRSGNTYYNEKFKGKATLTADKSSSTAYMELRSLTSEDSAVYFCARSGPITTLVATDYGMDYWGQGTSVTVSS VL: DIVLTQSPASLAVSLGQRATISCRASKSVSTSSYSYMHWYQQKPGQPPKLLIKFASNLESGVPARFSGSGSGTDFTLNIHPVEEEDAATYYCQHSREFPYTFGGGTKLEIK | 40 | 89 | 96 | 92 | 85 | 96 | 94
93C6F10D3 (antibody, V domains shown, Mouse hybridoma antibody purified on Protein G) VH: EVQLVESGGGLVTPGGSLKLSCVASGFAFSTYGMSWVRQTPERRLEWVAYISGGGGSIYYPDSVKGRFTISRDNAKNILYLQMSSLKSEDTAMYHCTRHPDLLLRYDYALDHWGQGTSVTVSS VL: DIQMTQSPASLSASVGETVTITCRASENIHIYLAWYQQKQGKSPQLLVYNGKTLADGVPSRFSGSGSGTQYSLKINTLQPEDFGNYYCQHFWNSTWTFGGGTKLEIK | 42 | 90 | 97 | 94 | 79 | 95 | 92
97A3C2H4 (antibody, V domains shown, Mouse hybridoma antibody purified on Protein G) VH: EVKLVESGGGLVQPGGSLKLSCAASGFTFSTYTMSWVRQTPEKRLEWVAYISYGGGSTSYPDTVKGRFTISRDNAKNTLYLQMSSLKSEDTAIYYCTRHVTVVENSMDYWGQGTSVTVSS VL: DILLTQSPDILSVSPGERVSFSCRASQSIGTSIHWYQQRTNGSPRLLIKYVSESFSGTPSRFSGSGSGTAFTLTINSVESEDIADYYCQQTHSWPWTFGGGTKLEIK | 55 | 89 | 96 | 93 | 93 | 93 | 96
67A2E1D10 (antibody, V domains shown, Mouse hybridoma antibody purified on Protein G) VH: EVQLQQSGAELVKPGASVKLSCTASGFNIKNYYMHWVKQRTEEGLEWIGRIDPEDGETKYAPKFQAKATITADTSSNTAYLQLSSLTSEDTAVYFCARKGYYGNYGAWFAYWGQGTLVTVSA VL: DIQMTQSPASLSVSVGETVTITCRASEDLYSNLAWYQQKQGKSPQLLVYAATFLADGVPSRFSGSGSGTQYSLKINSLQSEDFGNYYCQHFWGTPPTFGGGTKLEIK | 18 | 75 | 93 | 63 | 44 | 86 | 80
78C11D2D12 (antibody, V domains shown, Mouse hybridoma antibody purified on Protein G) VH: QVQLQQSGAELVRPGTSVKISCKASGYAFTNYWLGWVKQRPGHGLEWIGDIYPGSGNTYYNEKFKGKATLTADKSSSTAYMQLSSLTSEDSAVFFCAAYLYAMDYWGQGTSVTVSS VL: QIVLTQSPAIMSASPGEKVTITCSASSSVSYMHWFQQKPGTSPKLWIYSASNLASGVPARFSGSGSGTSYSLTISRMEAEDAATYYCQQRGSYPFTFGSGTKLEIK | 29 | 46 | 95 | 37 | 58 | 95 | 88
111D10D6G3 (antibody, V domains shown, Mouse hybridoma antibody purified on Protein G) VH: QVQLQQPGAELVKPGASVKMSCKASGYTFTRHWITWVKQRPGQGLEWIGDIFPGSGSINYNEKFKSEATLTVEKSSSTAYMQLSSLTSEDSAVYYCARGDVDVWGTGTTVTVSS VL: DIQMTQSPSSLSASLGERVSLTCRASQEIRGYLSWLQQKPNGTIKRLIYAASTLDSGVPKRFSATRSGSDFSLTISSLESEDFADYYCLQYASYPFTFGSGTKLEIK | 22 | 26 | 96 | 27 | 41 | 95 | 86
